Test [1] addresses dimAβ (dimeric Aβ variant: two Aβ40 units linked in one polypeptide chain through a flexible glycine-serine-rich linker) (UniProt P05067). Kind of test: ThT fluorescence aggregation kinetics; dimAβ at pH 7.4, concentration series, 37 °C, 150 mM NaCl, 1 µM ThT, microplate; lag-free oligomerization phase above the critical oligomer concentration.
The target is the same in test [2]. Kind of test: ThT fluorescence aggregation kinetics; dimAβ at pH 5.6, concentrations down to 0.4 µM, 37 °C, 150 mM NaCl.
For test [3] the target is unchanged. Kind of test: ThT fluorescence aggregation kinetics; dimAβ at pH 7.4, concentration series, 37 °C, 150 mM NaCl, 1 µM ThT, microplate; lag-free oligomerization phase above the critical oligomer concentration. The source holds these as a separate data set.

Like-named read-outs stand apart in the source and are kept apart here.

For the substance “dimAβ (dimeric Aβ variant: two Aβ40 units linked in one polypeptide chain through a flexible glycine-serine-rich linker) (from UniProt P05067 672-711; P05067 672-711)”, the critical oligomer concentration (COC) in test [1] came to 1.5 µM; in test [3], 1 µM. Further, the critical oligomer concentration (COC) at pH 5.6 in test [2] was less than 0.4 µM.
